Assay results as given in patent US20250019427A1.
Changes are numbered by the printed parent chain.

T1: Human GDF15 Fc (human) (UniProt Q99988)
T1 sequence (chain, biotinylated (EZ-Link Sulfo-NHS-Biotinylation Kit) where printed as biotinylated): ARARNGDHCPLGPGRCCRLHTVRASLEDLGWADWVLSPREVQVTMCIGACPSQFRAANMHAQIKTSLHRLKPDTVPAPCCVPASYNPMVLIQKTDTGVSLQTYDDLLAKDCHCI

B1: Clone E Fab (Fab, V domains shown)
VH: QVQLVQSGAEVKKPGASVKVSCKASGYTFTSYGINWVRQAPGQGLEWMGWITAYSGDTNYAQKLQGRVTMTTDTSTSTAYMELRSLRSDDTAVYYCARGPGQYADVDVWGQGTMVTVSS
VL: DIQMTQSPSSVSASVGDRVTITCRASQGISSWLAWYQQKPGKAPKLLIYAASSLQSGVPSRFSGSGSGTDFTLTISSLQPEDFATYYCQQANSFPITFGGGTKVEIK
B2: Clone P Fab (Fab, V domains shown)
VH: QVQLVQSGAEVKKPGATVKVSCKASGYTFDSYGIHWVRQAPGQGLEWMGWITAYSGDTVYAQKLQGRVTMTTDTSTSTAYMELRSLRSDDTAVYYCARESGQTSSALGPWGQGTLVTVSS
VL: B1 VL with S31R, A91G, N92A, I96L
B3: Clone T Fab (Fab, V domains shown)
VH: B1 VH
VL: B1 VL with N92S, S93Q
B4: Clone I Fab (Fab, V domains shown)
VH: B1 VH with S31D, Y32E, N59V
VL: B1 VL
B5: Clone J Fab (Fab, V domains shown)
VH: B1 VH with T52D, D57S
VL: B1 VL
B6: Clone K Fab (Fab, V domains shown)
VH: QVQLVQSGAEVKKPGASVKVSCKASGYTFTNEGISWVRQAPGQGLEWMGWISAYTADTFYAQKLQGRVTMTTDTSTSTAYMELRSLRSDDTAVYYCARTRHDTSGLRFDYWGQGTLVTVSS
VL: B1 VL with S30D, A91V, N92H
B7: Clone O Fab (Fab, V domains shown)
VH: B2 VH with Y32L, I34M, H35S, W50Y, T52S, A53T, T103Q, S104V, G108D
VL: B1 VL with S31R, A91G, N92A, I96L
B8: Clone S Fab (Fab, V domains shown)
VH: B1 VH
VL: B1 VL with M4L, S31P
B9: Clone L Fab (Fab, V domains shown)
VH: B6 VH with T30A, N31S, E32Y, G33D, S35I, Y54L, T55S, A56G, F59V, L106I
VL: B1 VL with S30D, A91V, N92H
B10: Clone E IgG (antibody, V domains shown)
VH: B1 VH
VL: DIQMTQSPSSVSASVGDRVTITCRASQGISSWLAWYQQKPGKAPKLLIYAASSLQSGVPSRFSGSGSGTDFTLTISSLQPEDFATYYCQQANSFPITFGGGTKVEIKR
B11: Clone J IgG (antibody, V domains shown)
VH: B1 VH with T52D, D57S
VL: B10 VL
B12: Clone I IgG (antibody, V domains shown)
VH: B1 VH with S31D, Y32E, N59V
VL: B10 VL
B13: Clone K IgG (antibody, V domains shown)
VH: B6 VH
VL: B10 VL with S30D, A91V, N92H
B14: Clone L IgG (antibody, V domains shown)
VH: B6 VH with T30A, N31S, E32Y, G33D, S35I, Y54L, T55S, A56G, F59V, L106I
VL: B10 VL with S30D, A91V, N92H
B15: Clone P IgG (antibody, V domains shown)
VH: B2 VH
VL: B10 VL with S31R, A91G, N92A, I96L
B16: Clone O IgG (antibody, V domains shown)
VH: B2 VH with Y32L, I34M, H35S, W50Y, T52S, A53T, T103Q, S104V, G108D
VL: B10 VL with S31R, A91G, N92A, I96L

target: T1, Human GDF15 Fc (human); assay: SPR Biacore, Fab monovalent

| Kd [nM] | koff [s⁻¹] | kon [M⁻¹ s⁻¹] | Binder |
| --- | --- | --- | --- |
| 0.0331 | 8.71e-05 | 2.63e+06 | B1 |
| 0.126 | 0.0021 | 1.66e+07 | B2 |
| 0.0411 | 4.52e-05 | 1.1e+06 | B3 |
| 0.0672 | 0.000259 | 3.85e+06 | B4 |
| 0.0884 | 0.000404 | 4.57e+06 | B5 |
| 0.23 | 0.00112 | 4.87e+06 | B6 |
| 0.0341 | 7.11e-05 | 2.08e+06 | B7 |
| 0.0369 | 4.93e-05 | 1.34e+06 | B8 |
| 0.144 | 0.000576 | 3.99e+06 | B9 |

target: T1, Human GDF15 Fc (human); assay: Octet BLI, IgG on tip, avid

| Kd [nM] | Binder |
| --- | --- |
| 0.278 | B10 |
| 0.276 | B11 |
| 0.262 | B12 |
| 0.271 | B13 |
| 0.325 | B14 |
| 0.274 | B15 |
| 0.379 | B16 |

target: T1, Human GDF15 Fc (human); assay: Octet BLI, Fab monovalent

| Kd [nM] | Binder |
| --- | --- |
| 0.921 | B1 |
| 3.68 | B2 |
| 0.613 | B3 |
| 1.25 | B4 |
| 1.28 | B5 |
| 2.11 | B6 |
| 0.216 | B7 |
| 0.48 | B8 |
| 1.58 | B9 |
